Measurements as given in PMC4914108 (Nucleic Acids Research, 2016).
Where two headings read alike, the source gives them in different places.

B1: DivIVA C-terminal domain, DivIVA(66-164) (domain or fragment, B. subtilis, UniProt P71021 66-164, looked up)
chain: TLNKSILVAQEAAEDVKRNSQKEAKLIVREAEKNADRIINESLSKSRKIAMEIEELKKQSKVFRTRFQMLIEAQLDLLKNDDWDHLLEYEVDAVFEEKE
B3: RacA C-terminal region, RacA(71-184) (domain or fragment, B. subtilis, UniProt P45870 71-184, looked up)
chain: RTGFLVQKTSSDTERRIEQLEQKLDTLLQQRQDESELMARMSELERQLKQKADEGVSYQLLQHRREIDDILADLQSLTSQMKEFTAHSIPETAAASEKTKTRKKPLLSLFKFQT

Legend:
[1] = target: B3; experiment: ITC
[2] = target: B3; experiment: ITC; remark: listed apart in the source
[3] = target: T1, RacA DBD (Bacillus subtilis, UniProt P45870 1-70); experiment: fluorescence polarization
T1 sequence: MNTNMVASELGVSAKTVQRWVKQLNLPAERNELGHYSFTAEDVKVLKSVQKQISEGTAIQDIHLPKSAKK

[4] = target: T2, RacA DBD K15A (Bacillus subtilis, UniProt P45870 1-70, K15A); experiment: fluorescence polarization
T2 sequence: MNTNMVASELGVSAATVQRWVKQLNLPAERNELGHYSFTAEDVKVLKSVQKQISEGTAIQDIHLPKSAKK

[5] = target: T3, RacA FL (Bacillus subtilis, UniProt P45870 1-184); experiment: fluorescence polarization
T3 sequence: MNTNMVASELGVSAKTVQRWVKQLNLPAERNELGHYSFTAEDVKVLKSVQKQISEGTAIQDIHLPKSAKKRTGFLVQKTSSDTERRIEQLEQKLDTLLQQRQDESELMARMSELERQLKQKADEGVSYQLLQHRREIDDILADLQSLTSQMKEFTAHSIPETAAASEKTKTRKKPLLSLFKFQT

[6] = target: T4, RacA C-domain (Bacillus subtilis, UniProt P45870 71-184); experiment: fluorescence polarization
T4 sequence: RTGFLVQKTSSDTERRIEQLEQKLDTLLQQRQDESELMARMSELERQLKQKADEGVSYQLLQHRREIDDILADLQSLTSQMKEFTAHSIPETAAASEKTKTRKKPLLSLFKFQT

[7] = target: T5, RacA DBD R30A (Bacillus subtilis, UniProt P45870 1-70, R30A); experiment: fluorescence polarization
T5 sequence: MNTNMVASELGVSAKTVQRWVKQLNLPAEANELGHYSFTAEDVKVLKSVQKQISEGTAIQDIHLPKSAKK

[8] = target: B1; experiment: ITC
[9] = target: T6, RacA from FL crystals (proteolyzed) (Bacillus subtilis, UniProt P45870 1-64); experiment: X-ray crystallography
T6 sequence: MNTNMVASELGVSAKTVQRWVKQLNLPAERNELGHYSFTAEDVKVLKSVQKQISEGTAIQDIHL

For B1, the Kd [1] was 1.5 µM, the “stoichiometry N” value [1] was 1 and the Kd [2] was 1.9 µM.

B2: 14mer ram centromere site (FP) (dsDNA)
DNA 1: TGACGCCGGCGTCA
DNA 2: TGACGCCGGCGTCA
With B2 the Kd [3] was 9.2 ± 4 µM, the Kd [4] was roughly 50 µM and the Kd [5] was 0.0584 ± 0.0003 µM. The binding result [6] was “no binding” and the Kd [7] was roughly 50 µM.

In the case of B3, the “stoichiometry N” value [8] is reported as 1.

B4: 14mer ram site, 5-bromouracil (dsDNA)
DNA 1: TGACGCCGGCGTCA
DNA 2: TGACGCCGGCGTCA
modifications: thymines replaced with 5-bromouracil
B4: binds [9].
